Test results as given in patent US20240352140A1 (Janssen / Centocor, published 2024).

Key:
recombinant soluble BCMA = target: T1, recombinant soluble BCMA (Homo sapiens (Human), UniProt Q02223 1-54); experiment: cell-based or functional assay
T1 sequence: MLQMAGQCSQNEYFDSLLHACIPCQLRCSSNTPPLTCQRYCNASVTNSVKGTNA

[1] = target: T2, cynomolgus monkey BCMA (as used in SPR) (cynomolgus monkey); experiment: SPR; column printed 'Binding Affinity to BCMA (nM)', Cyno
T2 construct: also called cyno BCMA

B1: teclistamab (bispecific antibody, human IgG4 S228P, lambda, F234A L235A)
heavy 1: not shown
light 1: SYVLTQPPSVSVAPGQTARITCGGNNIGSKSVHWYQQPPGQAPVVVVYDDSDRPSGIPERFSGSNSGNTATLTISRVEAGDEAVYYCQVWDSSSDHVVFGGGTKLTVLGQPKAAPSVTLFPPSSEELQANKATLVCLISDFYPGAVTVAWKGDSSPVKAGVETTTPSKQSNNKYAASSYLSLTPEQWKSHRSYSCQVTHEGSTVEKTVAPTECS
heavy 2: EVQLVESGGGLVQPGGSLRLSCAASGFTFNTYAMNWVRQAPGKGLEWVARIRSKYNNYATYYAASVKGRFTISRDDSKNSLYLQMNSLKTEDTAVYYCARHGNFGNSYVSWFAYWGQGTLVTVSSASTKGPSVFPLAPCSRSTSESTAALGCLVKDYFPEPVTVSWNSGALTSGVHTFPAVLQSSGLYSLSSVVTVPSSSLGTKTYTCNVDHKPSNTKVDKRVESKYGPPCPPCPAPEAAGGPSVFLFPPKPKDTLMISRTPEVTCVVVDVSQEDPEVQFNWYVDGVEVHNAKTKPREEQFNSTYRVVSVLTVLHQDWLNGKEYKCKVSNKGLPSSIEKTISKAKGQPREPQVYTLPPSQEEMTKNQVSLTCLVKGFYPSDIAVEWESNGQPENNYKTTPPVLDSDGSFLLYSKLTVDKSRWQEGNVFSCSVMHEALHNHYTQKSLSLSLGK
light 2: QTVVTQEPSLTVSPGGTVTLTCRSSTGAVTTSNYANWVQQKPGQAPRGLIGGTNKRAPGTPARFSGSLLGGKAALTLSGVQPEDEAEYYCALWYSNLWVFGGGTKLTVLGQPKAAPSVTLFPPSSEELQANKATLVCLISDFYPGAVTVAWKADSSPVKAGVETTTPSKQSNNKYAASSYLSLTPEQWKSHRSYSCQVTHEGSTVEKTVAPTECS
notes: Humanized IgG4 proline, alanine, alanine (PAA)-based bispecific antibody with one BCMA arm (BCMB69) and one CD3 arm (CD3B219); also called JNJ-64007957; JNJ-957
cytotoxicity assay with spiked recombinant sBCMA (167 nM), reduction in potency (recombinant soluble BCMA): 2 fold
Kd [1]: 5.36 to 7.27 nM
